We go through one substance from US20190375846A1.

For this experiment, the target named is human GITR at the cell surface (human) (UniProt Q9Y5U5). Briefly: cell-based or functional assay.
human GITR at the cell surface (human), sequence (Q9Y5U5 26-241): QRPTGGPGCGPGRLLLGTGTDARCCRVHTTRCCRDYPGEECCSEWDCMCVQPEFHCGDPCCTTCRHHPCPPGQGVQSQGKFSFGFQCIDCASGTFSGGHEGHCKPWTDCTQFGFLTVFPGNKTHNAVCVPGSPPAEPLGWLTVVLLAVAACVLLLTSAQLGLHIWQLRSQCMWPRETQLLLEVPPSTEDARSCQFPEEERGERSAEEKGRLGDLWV

As for “HA-tagged human GITRL protein cross-linked with anti-HA tag antibody (from UniProt Q9UNG2 52-177) (ligand)”, the concentration of maximum signal, GITR agonism reporter assay lay within 1000 to 2000 ng/mL.
